Laboratory results published in patent US8703915B2, “Mutant proteins and methods for producing them” (Heptares Therapeutics Limited, priority 2009, dated 2014).

Columns and labels:
[1] = tested on: 5HT2C receptor; assay: Antagonist binding to 5HT2C NPxxY motif alanine mutants (Table 1); design: species or system human; Average / Average - BG: unit not given here; details: for % of Wildtype binding / DPM1 / DPM2: antagonist Mesulergine binding; for DPM1: replicate 1; for DPM2: replicate 2; for Average - BG: average minus background; for Average: average of DPM1 and DPM2
Method: An alanine scan was carried out in a similar fashion on an adenosine A2A receptor along with the 5HT2C receptor in the presence of the antagonist Mesulergine. Both alanine scans were carried out in order to further stabilize the antagonist conformation. […] The motif in Adenosine A2A is NPFIY (SEQ ID NO: 364) and for the 5HT2C is NPLVY (SEQ ID NO: 363). Therefore mutations in this region of the receptor contain stabilising mutations specific to the agonist conformation and detrimentally effect antagonist binding.
(§1) 5HT2C receptor was solubilised from transiently transfected mammalian cells about 40 hours post transfection, in 50 mM Hepes pH7.4/100 mM KCl/0.5% DDM/(0.1% CHS/0.6% CHAPS was added to cells for SCH23390 agonist assay) and protease inhibitor. Cell lysates were left at 4° C. on a rotator and then cleared by centrifugation at 13,200 rpm for 20 minutes at 4° C. Thermostability analysis was performed directly on the soluble lysate. The Tm was determined by incubating 108 μl of the lysate with [N^6-methyl-^3H]Mesulergine radioligand at a final concentration of 17 nM or 9 nM [^3H]SCH23390 for one hour at 4° C. The six ligand incubations are then incubated at six different temperatures from 25° C. to 55° C., for thirty minutes. Receptor bound and free radioligand were separated using G25 Sephadex spin columns.

[2] = tested on: 5HT2C receptor; assay: Two point thermostability assay, SCH23390 agonist binding to 5HT2C alanine scan mutants; type: physicochemical, human
Method: An alanine scan has been carried out on the 5HT2C receptor in the presence of the agonist SCH23390 in order to stabilise the agonist conformation.
as §1

[3] = tested on: 5HT2C receptor; assay: Thermostability of 5HT2C receptor bound to agonist SCH23390; type: physicochemical, human
Method: An alanine scan has been carried out on the 5HT2C receptor in the presence of the agonist SCH23390 in order to stabilise the agonist conformation. Similar to A2A, it appears that mutating L2.46 (L95 in 5HT2C) to alanine confers significant stability on this receptor increasing the Tm of the receptor by 5.4° C. (FIG. 7). It is notable that in addition to L95, mutating the nearby M93 (two residues away from L2.46) to alanine also confers stability to the agonist bound receptor, resulting in an increase of 2.9° C.
(§2) A2AR-(2-316) expression was carried out by using the pRG/III-hs-MBP E. coli expression vector and DH5α cells. Cells were grown at 37° C. in 2 L flasks containing 500 mL of 2×TY medium supplemented with Ampicillin (100 μg/mL) and glucose (0.2% w/v). At OD600≈0.7, IPTG and theophylline were added at final concentrations respectively of 0.5 mM and 100 μM, and the temperature was reduced to 20° C. After 22 to 24 hours, cells were harvested in aliquots of 14 mL, centrifuged for 30 min and stored at −20° C. Both 5HT2C and M4 receptors were transiently expressed in HEK293T cells using GeneJuice transfection reagent used according to the manufacturers guidelines.
(§3) 5HT2C receptor was solubilised from transiently transfected mammalian cells in 50 mM Hepes pH7.4, 100 mM KCl, 0.5% DDM (0.1% CHS/0.6% CHAPS was added to cells for SCH23390 agonist assay). Tm analysis was performed directly on the soluble lysate. The Tm was determined by incubating 108 μl of the lysate with [N^6-methyl-^3H]Mesulergine radioligand at a final concentration of 17 nM or 9 nM [^3H]SCH23390 for one hour at 4° C. The six ligand incubations are then incubated at six different temperatures from 25° C. to 55° C., for thirty minutes. Receptor bound and free radioligand were separated using a 96-well plate gel filtration assay.
as §1

[4] = tested on: 5HT2C receptor; assay: Thermostability of 5HT2C receptor bound to antagonist mesulergine; type: physicochemical, human; details: bound to antagonist (mesulergine)
Method: as §2, §3

[5] = tested on: CRF1; assay: Thermostability of CRF1 bound to antagonist CP-376395, purified in DDM; type: physicochemical, human; details: antagonist-bound state (CP-376395), purified in DDM
Method: In order to stabilise CRF1 in the antagonist conformation, a systematic alanine-scan was performed to identify mutations that stabilise receptors bound to the antagonist ligand CP-376395. Mutating I2.58 to alanine (I163A) confers significant stabilisation in CRF1, increasing the thermal stability by 3.9 (±0.5)° C. (FIG. 15).
CRF1 receptors were transiently expressed in HEK293T cells on 10 cm plates using GeneJuice transfection reagent used according to manufacturers guidelines.
Cells expressing CRF1 were harvested in PBS approximately 40 hours post-transfection and re-suspended in 950 μl Re-suspension buffer (50 mM Tris-HCl, 150 mM NaCl, 2× Complete EDTA-free Protease inhibitor cocktail (Roche), pH7.5). Cells were incubated with 120 nM CP-376395 and 30 nM [^3H]-CP-376395 at 37° C. for 2 hours before transferring to ice for 5 minutes. The receptors were solubilised by the addition of 1% DDM and incubated at 4° C. for 1 hour with gentle agitation. Insoluble material was removed by centrifugation at 16000×g for 10 minutes at 4° C. The solubilised receptors were partially purified with Ni-NTA agarose (Qiagen). Ni-NTA resin was equilibrated in Equilibration buffer (50 mM Tris-HCl, 150 mM NaCl, 2× Complete EDTA-free Protease inhibitor cocktail (Roche), 0.025% DDM, pH7.5) and 400 μl of a 50:50 resin slurry was added to each sample. Resin slurries were incubated at 4° C. for 1 hour 30 minutes with gentle agitation to bind receptors. Resin slurries were then transferred to a batch column filter plate (Chromabond) and centrifuged at 1000×g for 1 minute, discarding the flow-through. Resin was washed twice with 1 ml of Wash buffer (50 mM Tris-HCl, 150 mM NaCl, 2× Complete EDTA-free Protease inhibitor cocktail (Roche), 0.025% DDM, 20 mM Imidazole, pH7.5) and then eluted in 1 ml of Elution buffer (50 mM Tris-HCl, 150 mM NaCl, 2× Complete EDTA-free Protease inhibitor cocktail (Roche), 0.025% DDM, 100 mM histidine, 30 nM [^3H]-CP-376395, 120 nM CP-376395, pH7.5) by resuspension at 4° C. for 30 minutes. Eluted samples were used directly in the thermostability assay. […]

[6] = tested on: M4 muscarinic receptor; assay: Thermostability of M4 muscarinic receptor bound to antagonist NMS; type: physicochemical, human; details: bound to antagonist NMS
Method: In order to stabilise the M4 muscarinic receptors in antagonist conformation, a systematic alanine-scan was performed to identify mutations that stabilise receptors bound to the muscarinic antagonist, NMS. […] However, L71A (three residues N-terminal of the L2.46) was identified as a stabilising mutation. This mutation increases the Tm of this receptor by about 2° C. (FIG. 8a).
as §2
Transiently transfected mammalian cells expressing M4 were harvested about 40 hours post transfection and the receptors were solubilised in 50 mM Tris pH 7.5/250 mM NaCl/1% DDM/EDTA free protease inhibitor mix for 1 hour rotating at 4° C. The solubilised lysate was then cleared by centrifugation at 13000 rpm for 15 minutes at 4° C. The solubilised receptors were then purified on Ni-NTA beads and eluted with 100 mM histidine. The eluted receptor was used in radioligand binding assay. Thermostability of M4 was measured using 25 μL of purified receptor mixed with 95 μL of 12 nM [^3H]-NMS (final concentration of 10 nM). The sample was incubated for 60 min at 4° C., then 30 min at the specified temperature and then 30 min at 4° C. Receptor bound and free radioligand were separated using a 96-well plate gel filtration assay.

B1: L366: 5HT2C receptor mutant, residue 7.51 (L366, L in NPLVY) to alanine (protein, UniProt P28335 33-458, looked up, variant L366A)
5-hydroxytryptamine receptor …: IVTDIFNTSDGGRFKFPDGVQNWPALSIVIIIIMTIGGNILVIMAVSMEKKLHNATNYFLMSLAIADMLVGLLVMPLSLLAILYDYVWPLPRYLCPVWISLDVLFSTASIMHLCAISLDRYVAIRNPIEHSRFNSRTKAIMKIAIVWAISIGVSVPIPVIGLRDEEKVFVNNTTCVLNDPNFVLIGSFVAFFIPLTIMVITYCLTIYVLRRQALMLLHGHTEEPPGLSLDFLKCCKRNTAEEENSANPNQDQNARRRKKKERRPRGTMQAINNERKASKVLGIVFFVFLIMWCPFFITNILSVLCEKSCNQKLMEKLLNVFVWIGYVCSGINPAVYTLFNKIYRRAFSNYLRCNYKVEKKPPVRQIPRVAATALSGRELNVNIYRHTNEPVIEKASDNEPGIEMQVENLELPVNPSSVVSERISSV
Question: How did the “% of Wildtype binding” value [1] turn out when B1 was run?
Answer: 19.27%

Question: And the DPM1 [1]?
Answer: 2515 DPM

Question: And the DPM2 [1]?
Answer: 1897 DPM

Question: What about the “Average - BG” value [1] of the same molecule?
Answer: 1774.5

Question: What about the Average [1] of the same molecule?
Answer: 2206

Question: What about the “thermostability (agonist binding at the destabilising temperature compared to wild type)” value [2] of the same molecule?
Answer: increased agonist binding compared to the wild type receptor

Question: And the “increase of Tm” value ([3]; agonist SCH23390 bound, versus parent 5HT2C)?
Answer: 4 °C

B2: 5HT2C: wild type (parent) human 5HT2C receptor (protein, listed as Homo sapiens)
chain: MVNLRNAVHSFLVHLIGLLVWQCDISVSPVAAIVTDIFNTSDGGRFKFPDGVQNWPALSIVIIIIMTIGGNILVIMAVSMEKKLHNATNYFLMSLAIADMLVGLLVMPLSLLAILYDYVWPLPRYLCPVWISLDVLFSTASIMHLCAISLDRYVAIRNPIEHSRFNSRTKAIMKIAIVWAISIGVSVPIPVIGLRDEEKVFVNNTTCVLNDPNFVLIGSFVAFFIPLTIMVITYCLTIYVLRRQALMLLHGHTEEPPGLSLDFLKCCKRNTAEEENSANPNQDQNARRRKKKERRPRGTMQAINNERKASKVLGIVFFVFLIMWCPFFITNILSVLCEKSCNQKLMEKLLNVFVWIGYVCSGINPLVYTLFNKIYRRAFSNYLRCNYKVEKKPPVRQIPRVAATALSGRELNVNIYRHTNEPVIEKASDNEPGIEMQVENLELPVNPSSVVSERISSV
Question: Which “% of Wildtype binding” value [1] does the source give for B2 here?
Answer: 100%

Question: And the DPM1 [1]?
Answer: 10202 DPM

Question: What about the DPM2 [1] of the same molecule?
Answer: 9631 DPM

Question: What about the “Average - BG” value [1] of the same molecule?
Answer: 9208

Question: And the Average [1]?
Answer: 9916.5

Question: And the Tm [4]?
Answer: 37.1 °C

Question: And the Tm ([3]; bound to agonist SCH23390)?
Answer: 43.35 °C

B3: CRF1-WT: wild type human CRF1 receptor (protein, UniProt P34998 24-415, looked up)
Corticotropin-releasing …: SLQDQHCESLSLASNISGLQCNASVDLIGTCWPRSPAGQLVVRPCPAFFYGVRYNTTNNGYRECLANGSWAARVNYSECQEILNEEKKSKVHYHVAVIINYLGHCISLVALLVAFVLFLRLRSIRCLRNIIHWNLISAFILRNATWFVVQLTMSPEVHQSNVGWCRLVTAAYNYFHVTNFFWMFGEGCYLHTAIVLTYSTDRLRKWMFICIGWGVPFPIIVAWAIGKLYYDNEKCWFGKRPGVYTDYIYQGPMILVLLINFIFLFNIVRILMTKLRASTTSETIQYRKAVKATLVLLPLLGITYMLFFVNPGEDEVSRVVFIYFNSFLESFQGFFVSVFYCFLNSEVRSAIRKRWHRWQDKHSIRARVARAMSIPTSPTRVSFHSIKQSTAV
Question: Which Tm [5] does the source give for B3 here?
Answer: 26.8 °C

B4: M4: parent human M4 muscarinic receptor (protein, UniProt P08173 1-479, looked up)
Muscarinic acetylcholine …: MANFTPVNGSSGNQSVRLVTSSSHNRYETVEMVFIATVTGSLSLVTVVGNILVMLSIKVNRQLQTVNNYFLFSLACADLIIGAFSMNLYTVYIIKGYWPLGAVVCDLWLALDYVVSNASVMNLLIISFDRYFCVTKPLTYPARRTTKMAGLMIAAAWVLSFVLWAPAILFWQFVVGKRTVPDNQCFIQFLSNPAVTFGTAIAAFYLPVVIMTVLYIHISLASRSRVHKHRPEGPKEKKAKTLAFLKSPLMKQSVKKPPPGEAAREELRNGKLEEAPPPALPPPPRPVADKDTSNESSSGSATQNTKERPATELSTTEATTPAMPAPPLQPRALNPASRWSKIQIVTKQTGNECVTAIEIVPATPAGMRPAANVARKFASIARNQVRKKRQMAARERKVTRTIFAILLAFILTWTPYNVMVLVNTFCQSCIPDTVWSIGYWLCYVNSTINPACYALCNATFKKTFRHLLLCQYRNIGTAR
Question: How did the Tm [6] turn out when B4 was run?
Answer: 34.0 °C
